# US12514853B2, “Therapeutic dendrimer” (Starpharma Pty Ltd, priority 2018, dated 2026)
# Several values for one entry are separate records, joined by “and”; a condition that tells them apart may be missing. Equal entries are not always repeated. Where two headings read alike, the source gives them in different places.
# Assays:
# [1] = test system: HT-29 (human colon carcinoma cell line) xenograft; assay: Efficacy alone or in combination with olaparib in HT-29 xenograft model in mice; format: in vivo, Balb/c nude mice; details: for Percent TGI: day 28; for effect on HT-29 tumour growth (in words): olaparib 50 mg/kg orally, irinotecan 80 mg/kg IV, their combination, 2f 5 and 8 mg/kg IV
# Procedure: Olaparib solid powder obtained from MedChemExpress was solubilised in DMSO and an oral formulation was prepared at a final concentration of 5 mg/ml in 10% DMSO: 15% (2-Hydroxypropyl)-β-cyclodextrin in sterile water.
# The endpoint for the analysis was a tumour volume of 1200 mm^3.
# Statistical analysis of tumour growth was performed on day 28 when the first study animals reached endpoint criteria for tumour burden.
# [2] = test system: HT-29 cells (human colon cancer cell line); assay: In-vitro anti-cancer drug screening, cell counting (SRB) assay; format: cell-based; details: concentration required to inhibit net cell growth by 50%
# Procedure: A study was carried out to determine the ability of example dendrimers to inhibit growth of HT-29 cells (human colon cancer cell line) using a cell counting (SRB) assay.
# [3] = plasma release study (SN-38 release in rat plasma); format: in vitro ADME; details: 37° C.
# [4] = SN-38 release from dendrimers in 9:1 PBS/DMA at 37° C. and pH 7.4; format: physicochemical; details: SN-38 released, pH 7.4, 1 mg/mL dendrimer
# Procedure: A study was carried out to determine the rate of SN-38 release from certain dendrimeric compounds in 9:1 PBS (phosphate-buffered saline): DMA at 37° C. and pH 7.4.
# The PBS release study was conducted by preparing 1 mg/mL solutions of dendrimer in 9:1 v/v (PBS/DMA) immediately prior to incubation at 37° C. Samples were analysed at 6 h and 18 h and other timepoints by HPLC, comparing the % peak area of SN-38 to the % peak area of dendrimer construct. HPLC (C8 Xbridge, 3×100 mm), gradient: 5% ACN/H2O (0-1 min), 5-80% ACN (1-7 min), 80% ACN (7-12 min), 80-5% ACN (12-13 min), 5% ACN (13-15 min), 243 nm, 10 mM ammonium formate buffer, 0.4 mL/min.
# [5] = test system: MDA-MB-231 (human breast carcinoma cell line) xenograft; assay: Efficacy in MDA-MB-231 xenograft model in mice; format: in vivo, Balb/c nude mice; details: irinotecan 90 mg/kg, 2f 15, 2h 25 mg/kg IV once weekly for three weeks
# [6] = test system: SW620 (human colon carcinoma cell line) xenograft; assay: Efficacy in SW620 xenograft model in mice; details: for effect on SW620 tumour growth / tolerability: irinotecan 90 mg/kg; for effect on SW620 tumour growth: 2f 15, 2i 15, 2h 25, 2a 25 mg/kg IV days 1, 8, 15, study to day 119; for tolerability: 2f 15, 2i 15, 2h 25, 2a 25 mg/kg IV once weekly for three weeks
# [7] = test system: HT-29 (human colon carcinoma cell line) xenograft; assay: Efficacy in HT-29 xenograft model in mice; format: in vivo, Balb/c nude mice; details: for effect on HT-29 tumour growth: 2f 15, 2i 15, 2h 25 mg/kg SN-38 equivalents IV once weekly; for Tumour growth inhibited: day 36, vs vehicle, irinotecan 90 mg/kg, 2f 15, 2i 15, 2h 25 mg/kg IV
# [8] = for tolerability: 2f 15 mg/kg, 2i 15 mg/kg, 2h 25 mg/kg, 2a 30 mg/kg SN-38 equivalents, IV once weekly for three weeks
# [9] = test system: CAPAN-1 (pancreatic cancer cell line) xenograft; assay: Efficacy in CAPAN-1 xenograft model in mice; format: in vivo
# [10] = Single dose pharmacokinetic study in rats; details: rat, single slow bolus IV
# [11] = test system: HT-29 (human colon carcinoma cell line) xenograft; assay: Efficacy alone or in combination with cetuximab in HT-29 xenograft model in mice
# [12] = 15 mg/kg SN-38 equivalents IV once weekly for 3 weeks
# [13] = 20 mg/kg SN-38 equivalents IV once weekly for 3 weeks
# [14] = 30 mg/kg SN-38 equivalents IV once weekly for 3 weeks
# [15] = high dose 2f (approx. 16.5 mg/kg SN-38 equivalents)
# [16] = low dose 2f (approx. 1.3 mg/kg SN-38 equivalents)
# [17] = medium dose 2f (approx. 7.5 mg/kg SN-38 equiv)
compound,measurement,setting,value
"O=C(c1cc(Cc2n[nH]c(=O)c3ccccc23)ccc1F)N1CCN(C(=O)C2CC2)CC1 [Olaparib, reference compound]",Percent TGI,"[1]; olaparib 50 mg/kg orally 5 days on/2 days off for 3 weeks, irinotecan 80 mg/kg IV days 1, 8, 15",0%
same,effect on HT-29 tumour growth (in words),[1],no effect on tumour growth
"CCc1c2c(nc3ccc(O)cc13)-c1cc3c(c(=O)n1C2)COC(=O)[C@]3(O)CC [SN-38, reference compound]",GI50,[2]; Homo sapiens,< 10 nM
BHALys[Lys]32[α-DGA-C10-SN-38]32†[ε-PEG˜2300]32‡ [Dendrimer 2e],% SN-38 released,[3]; 0.5 h,30.58%
same,% SN-38 released,[3]; 2 h,57.54%
same,% SN-38 released,[3]; 4 h,67.96%
same,% SN-38 released,[3]; 6 h,75.16%
same,% SN-38 released,[3]; 22 h,95.38%
same,GI50,[2],< 10 nM
same,% Release at 6 h in 9:1 PBS/DMA at 37° C.,[4],64%
same,% Release at 18 h in 9:1 PBS/DMA at 37° C.,[4],71%
BHALys[Lys]32[α-DGA-C20-Irinotecan]32†[ε-PEG˜2300]32‡ [Dendrimer 2j],GI50,[2],12000 nM
BHALys[Lys]32[α-DGA-C20-SN-38]32†[ε-PEG˜2100]32‡ [Dendrimer 2f],tumour growth and tumour regression versus irinotecan,"[1]; 2f 5 and 8 mg/kg vs irinotecan 80 mg/kg, P <0.0001",significantly inhibited tumour growth and prolonged tumour regression versus irinotecan
same,tumour regression versus olaparib,[1]; 2f 5 and 8 mg/kg vs olaparib 50 mg/kg,prolonged tumour regression versus olaparib
same,Percent TGI,"[1]; 5 mg/kg 2f IV days 1, 8, 15, alone or with olaparib 50 mg/kg orally",62%
same,Percent TGI,"[1]; 8 mg/kg 2f IV days 1, 8, 16, alone or with olaparib 50 mg/kg orally",94% and 97%
same,effect on HT-29 tumour growth (in words),[1],clear dose dependent repose with statistically significant inhibition of tumour growth
same,effect on MDA-MB-231 tumour growth,[5],induce MDA-MB-231 tumour regression
same,effect on SW620 tumour growth,[6],induce regression of SW620 tumours
same,tolerability,[6],well tolerated
same,effect on HT-29 tumour growth,[7],induce transient regression of HT-29 tumours
same,Tumour growth inhibited,[7],108%
same,Max. body weight loss (%),[8]; [12],4%
same,Max. body weight loss (%),[8]; [13],10%
same,Max. body weight loss (%),[8]; [14],22%
same,tolerability,[8],well tolerated
same,% SN-38 released,[3]; 0.5 h,5.06%
same,% SN-38 released,[3]; 2 h,24.56%
same,% SN-38 released,[3]; 4 h,45.36%
same,% SN-38 released,[3]; 6 h,61.81%
same,% SN-38 released,[3]; 22 h,95.61%
same,effect on CAPAN-1 tumour growth,[9]; administered intraperitoneally once weekly for three weeks,induces CAPAN-1 tumour regression
same,effect on CAPAN-1 tumour growth,[9]; administered intravenously once weekly for three weeks,induces CAPAN-1 tumour regression
same,GI50,[2],50 nM and 40 nM
same,% Release at 6 h in 9:1 PBS/DMA at 37° C.,[4],24%
same,% Release at 18 h in 9:1 PBS/DMA at 37° C.,[4],55%
same,"AUC0-∞, free SN-38",[10]; [15],"6,677 ng · hr/mL"
same,"Cmax, free SN-38",[10]; [15],289 ng/mL
same,"Cmax, total SN-38",[10]; [15],"306,500 ng/mL"
same,Free SN-38 at 120 hours,[10]; [15],10.8 ng/mL
same,Total SN-38 at 120 hours,[10]; [15],792.5 ng/mL
same,"AUC0-∞, free SN-38",[10]; [16],"1,196 ng · hr/mL"
same,"Cmax, free SN-38",[10]; [16],93 ng/mL
same,"Cmax, total SN-38",[10]; [16],"32,767 ng/mL"
same,Free SN-38 at 120 hours,[10]; [16],0.8 ng/mL
same,Total SN-38 at 120 hours,[10]; [16],111.5 ng/mL
same,"AUC0-∞, free SN-38",[10]; [17],"3,179 ng · hr/mL"
same,"Cmax, free SN-38",[10]; [17],164 ng/mL
same,"Cmax, total SN-38",[10]; [17],"150,334 ng/mL"
same,Free SN-38 at 120 hours,[10]; [17],3.7 ng/mL
same,Total SN-38 at 120 hours,[10]; [17],498 ng/mL
same,survival versus cetuximab,[11]; 2f 10 and 5 mg/kg vs cetuximab 25 mg/kg,prolonged survival versus cetuximab
same,survival versus irinotecan,"[11]; 2f 10 and 5 mg/kg vs irinotecan 35 mg/kg, P<0.0001",significantly prolonged survival versus irinotecan
BHALys[Lys]32[α-Glu-C10-SN-38]32†[ε-PEG˜2300]32‡ [Dendrimer 2a],animals euthanized due to weight loss,"[6]; 2a 25 mg/kg IV days 1, 8, 15, group of 6",One animal from the 2a group was euthanized during the study due to weight loss on Day 99
same,effect on SW620 tumour growth,[6],induce regression of SW620 tumours
same,tolerability,[6],well tolerated
same,Max. body weight loss (%),[8]; 10 mg/kg SN-38 equivalents IV once weekly for 3 weeks,0%
same,Max. body weight loss (%),[8]; [14],10%
same,tolerability,[8],well tolerated
same,% SN-38 released,[3]; 0.5 h,1.59%
same,% SN-38 released,[3]; 2 h,4.47%
same,% SN-38 released,[3]; 4 h,7.57%
same,% SN-38 released,[3]; 6 h,11.28%
same,% SN-38 released,[3]; 22 h,42.46%
same,GI50,[2],130 nM
same,% Release at 6 h in 9:1 PBS/DMA at 37° C.,[4],9%
same,% Release at 18 h in 9:1 PBS/DMA at 37° C.,[4],38%
BHALys[Lys]32[α-Glu-C20-SN-38]32†[ε-PEG˜2300]32‡ [Dendrimer 2b],% SN-38 released,[3]; 0.5 h,0.93%
same,% SN-38 released,[3]; 2 h,1.27%
same,% SN-38 released,[3]; 4 h,1.94%
same,% SN-38 released,[3]; 6 h,2.73%
same,% SN-38 released,[3]; 22 h,12.17%
same,% Release at 6 h in 9:1 PBS/DMA at 37° C.,[4],0%
same,% Release at 18 h in 9:1 PBS/DMA at 37° C.,[4],3%
BHALys[Lys]32[α-TDA-C10-SN-38]32†[ε-PEG˜2100]32‡ [Dendrimer 2c],% SN-38 released,[3]; 0.5 h,20.52%
same,% SN-38 released,[3]; 2 h,38.32%
same,% SN-38 released,[3]; 4 h,48.79%
same,% SN-38 released,[3]; 6 h,53.42%
same,% SN-38 released,[3]; 22 h,69.8%
same,GI50,[2],30 nM
same,% Release at 6 h in 9:1 PBS/DMA at 37° C.,[4],54%
same,% Release at 18 h in 9:1 PBS/DMA at 37° C.,[4],55%
BHALys[Lys]32[α-TDA-C20-Irinotecan]32†[ε-PEG˜2100]32‡ [Dendrimer 2k],GI50,[2],46000 nM
BHALys[Lys]32[α-TDA-C20-SN-38]32†[ε-PEG˜2300]32‡ [Dendrimer 2d],% SN-38 released,[3]; 0.5 h,1.87%
same,% SN-38 released,[3]; 2 h,5.47%
same,% SN-38 released,[3]; 4 h,9.50%
same,% SN-38 released,[3]; 6 h,14.92%
same,% SN-38 released,[3]; 22 h,46.69%
same,GI50,[2],140 nM
same,% Release at 6 h in 9:1 PBS/DMA at 37° C.,[4],5%
same,% Release at 18 h in 9:1 PBS/DMA at 37° C.,[4],13%
BHALys[Lys]32[α-THF-C20-SN-38]32†[ε-PEG˜2300]32‡ [Dendrimer 2i],effect on SW620 tumour growth,[6],induce regression of SW620 tumours
same,tolerability,[6],well tolerated
same,effect on HT-29 tumour growth,[7],induce transient regression of HT-29 tumours
same,Tumour growth inhibited,[7],103%
same,Max. body weight loss (%),[8]; [12],8%
same,Max. body weight loss (%),[8]; [13],15%
same,Max. body weight loss (%),[8]; [14],15%
same,tolerability,[8],well tolerated
same,% Release at 6 h in 9:1 PBS/DMA at 37° C.,[4],40%
same,% Release at 18 h in 9:1 PBS/DMA at 37° C.,[4],60%
